Measurements reported in the supplement of paper PMC10567573.

B1: FBF1 (parent)
chain: FGDSPKAEKRQIGDQEGPRPARST
B2: INTS3 (parent)
chain: DLNSKGKKREFRFHPIKETVVEEP

Variants of: B1
Assay: protein stability index of a GFP-peptide fusion (GPS, HEK-293T) (PSI 1-6); higher = more stable
Details: c terminus: a fixed tail appended
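Note: lentivirally expressed fusions sorted by FACS into six bins by GFP to DsRed ratio, PSI derived from sequencing read proportions per bin multiplied by bin number.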

Protein stability index of substitutions, site by site:
R19: N 5.34, W 3.25, I 5.08, L 4.9, Q 4.91, D 5.3, G 5.13, C 5.4, M 4.9, K 4.88, H 3.86, E 5.73, F 4.87, S 5.4, Y 4.21, T 4.23
S23: P 4.67, H 5.53, C 4.66, M 5.01, A 5.25, Y 5.37, G 5.7, N 5.5, I 4.57, L 4.98, V 5, R 4.78, E 5.03, K 4.29, D 5.31, T 5.12
T24: F 4.83, Y 4.74, C 4.96, I 4.45, V 4.67, A 4.91, R 4.68, W 4.34, N 5.34, E 5.3, P 5.25, H 4.98, Q 5.62, D 4.52, M 4.81
P20: M 4.96, H 4.95, Q 5.39, I 4.84, G 3.96, T 5.08, Y 4.91, S 5.02, E 5.58, V 4.54, W 4.58, L 4.46, R 5.26, N 4.89, F 4.57, A 5.25, K 4.72, D 5.07
A21: C 5.2, T 5.9, P 5.19, D 5.5, F 4.52, M 4.92, N 5.34, S 4.37, V 5.42, Q 5.62, K 5.23, Y 4.86, L 4.17, H 4.93, G 5.73, I 4.77, R 4.59
R22: I 5.46, K 4.92, W 3.86, L 5.38, S 5.4, C 5.26, P 5.64, H 4.97, E 4.79, G 4.92, M 5.72, T 4.8, Q 5.16, F 4.49, N 5.66, D 5.27, A 5.15

Variants of: B2
Assay: as above
Details: c terminus: a fixed tail appended

Protein stability index, by site and new letter:
D1: T 1.52, G 2.23, H 2.83, Y 1.67, Q 2.02, M 1.86, S 1.55, I 1.28, F 2.24, A 2.01, L 2.23, C 2.26, V 2.47, K 2.23, N 1.56, R 1.97, P 1.48, E 2.43
S4: C 2.27, D 2.6, F 2.77, M 2.03, A 2.42, L 2, N 1.99, I 2.12, G 2.13, H 2.24, K 2.08, E 3.09
N3: W 1.8, P 1.87, L 2.16, G 2.2, H 1.88, K 2.19, D 2.79, Q 2.33, C 1.78, M 1.77, T 2.4, Y 2.54, I 1.88, A 1.83, V 1.53, R 2.08, E 2.9, F 1.51, S 1.76
L2: E 2.26, H 2, S 2.89, T 2.28, G 2.8, V 3.25, D 2.82, A 2.73, N 2.96, Q 2.69, R 2.34, P 2.74, F 2.2, K 2.09, C 2.22, I 2.36, M 1.81, Y 1.89, W 1.9
